For one protein, heterodimer formation (% of wild type) (% of wild type) results are on record in PMC2739136.

Assay in all cases: pull-down
In one series the target is T1, MBP-TraR G123R, P33905.
T1 chain: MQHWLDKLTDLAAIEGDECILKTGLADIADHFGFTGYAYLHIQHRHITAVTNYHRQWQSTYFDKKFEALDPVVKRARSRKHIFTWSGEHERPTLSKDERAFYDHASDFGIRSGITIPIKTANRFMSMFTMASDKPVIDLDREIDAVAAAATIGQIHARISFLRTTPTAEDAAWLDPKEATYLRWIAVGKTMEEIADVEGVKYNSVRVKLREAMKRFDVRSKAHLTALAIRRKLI

A further series addresses T2, MBP-TraR A222S, P33905.
T2 chain: T1 chain with R123G, A222S

In another series the target is T3, MBP-TraR I229Y, P33905.
T3 chain: T1 chain with R123G, I229Y

The next series addresses T4, MBP-TraR Q154A, P33905.
T4 chain: T1 chain with R123G, Q154A

The target in the next series is T5, MBP-TraR A222D, P33905.
T5 chain: T1 chain with R123G, A222D

The target in another series is T6, MBP-TraR A150V, P33905.
T6 chain: T1 chain with R123G, A150V

The target in another series is MBP-TraR N122A, P33905.
The next series concerns the target T7, MBP-TraR S160A, P33905.
T7 chain: T1 chain with R123G, S160A

Substitutions are numbered along the chain they refer to.

B1: native TraR (wild type) (protein)
chain: T1 chain with R123G
Take B1: the heterodimer formation (% of wild type) (% of wild type) with MBP-TraR G123R, P33905 worked out at 49; with MBP-TraR A222S, P33905, 53; with MBP-TraR I229Y, P33905, 23; in the series with MBP-TraR Q154A, P33905 it was 27; in the series with MBP-TraR A222D, P33905, 29; with MBP-TraR A150V, P33905, 15. The heterodimer formation (% of wild type) (% of wild type) with MBP-TraR N122A, P33905 came out at 28; with MBP-TraR S160A, P33905, 100.
